Measured values reported in the supplement of paper PMC10126150.
± gives the standard deviation of the averaged measurements.

System: ATP
Assay: switch fluorescence ratio, 500 uM ATP over buffer (Cy3 cluster intensity, sum of 5 cycles each) (fold (ratio)); higher = stronger signal-on switching upon ATP binding; sequences stand for … in TCGTCGGCAGCGTCAGATGTGTATAAGAGACAGTTTTTTTTTTTTTTTTTTTTTTTTT…TC
Details: aptamer strand: ATP DNA aptamer (quencher-CACCTGGGGGAGTATTGCGGAGGAAGG + anchor), 100 nM annealed; ATP concentration: 500 uM
Method in brief: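 Between each of five buffer/ATP cycles, the flow-cell was stripped with NaOH and re-annealed. Each cycle imaged Cy3-labelled switching-strand clusters, annealed to 100 nM quencher-labelled ATP aptamer on a modified Illumina MiSeq flow-cell, first in selection buffer and then after 15 min with 500 uM ATP at 22 °C. The fluorescence ratio is summed target-cycle over summed buffer-cycle Cy3 intensity per cluster, averaged per switch-domain sequence, with clusters outside 100-1000 RFU excluded.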
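Also: ATP exposure 15 min at 22 °C before imaging.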

Sequence | switch fluorescence ratio
TTGGATGGGA | 1 ± 0.034
GTACTGTAGG | 1 ± 0.026
CGACAATGCC | 1.29 ± 0.03
TATCTATCCG | 0.985 ± 0.039
CCAGGGACGA | 1.02 ± 0.024
GCATTAGGGC | 1.07 ± 0.14
AAGGGCCAAT | 1 ± 0.022
TTGTTGGGAT | 0.996 ± 0.028
TTGATTGGAT | 1 ± 0.014
GATGGTAACT | 0.984 ± 0.017
AGATAGTTGG | 0.99 ± 0.038
AAGGGGGCAT | 0.979 ± 0.033
TCCAGATGGA | 0.977 ± 0.037
AGGGTGGCTT | 1.02 ± 0.088
TTCAAGGAGT | 1.028 ± 0.0017
CGTGATATCT | 1.05 ± 0.018
CAGTGCAGCG | 1.06 ± 0.057
GTTGTTTCGT | 1 ± 0.017
TGACAGGATT | 0.9946 ± 0.0083
GAAAAAGTCG | 0.997 ± 0.042
GGGGTGCGCG | 0.968 ± 0.025
ACGGGGGGCT | 0.995 ± 0.057
TTTATTACTT | 1 ± 0.029
TGTGAAAATT | 1.01 ± 0.051
CAATGGGGTA | 0.992 ± 0.012
TTAGGATCGC | 1.02 ± 0.057

Sequence | switch fluorescence ratio
TTTACAGAGT | 1.06 ± 0.12
TCGGGTTCAG | 1 ± 0.034
AGGGGATTAT | 0.998 ± 0.038
TGAGAAAAAT | 0.973 ± 0.018
GATTTGGAGC | 0.9911 ± 0.0076
GGGGATTATG | 0.997 ± 0.046
CTGGTTTAGC | 1 ± 0.016
AAACGATGTT | 1.02 ± 0.055
TTCTCTTTTT | 1.02 ± 0.036
TTTTGTTTCA | 1 ± 0.022
TTTATTTAAT | 1.03 ± 0.035
GCGAGATGCG | 0.972 ± 0.032
TACGATACTC | 1.62 ± 0.026
GATTACATGC | 1.01 ± 0.037
TATATGGCGA | 0.995 ± 0.031
CGGGGATCTA | 1 ± 0.018
GGGTCTCATC | 1.02 ± 0.065
CTTTTTGACT | 1.01 ± 0.028
GATTTGGTCT | 1.04 ± 0.035
TTTGGAAATT | 1.43 ± 0.61
GGTTCAGCTT | 0.981 ± 0.013
AACCAGGGGC | 1.37 ± 0.091
TCATGCAACG | 1.06 ± 0.06
TTGTCCTGGG | 1.02 ± 0.012
AGGGGGTGTA | 1.02 ± 0.014
CATTCTTTGG | 0.9836 ± 0.0041

Sequence | switch fluorescence ratio
TCTCAGCAAA | 3.38 ± 0.53
TCGGGTTAGT | 1.005 ± 0.0081
GAAAGGGCTC | 1.09 ± 0.069
TTTCGGGACC | 1.04 ± 0.031
AAGTCGACAC | 1.02 ± 0.032
TTGTAGTTTG | 0.977 ± 0.0071
ATGGGGTCGG | 1 ± 0.035
ACTTATGTGG | 0.974 ± 0.018
TGTGAAAAGT | 0.996 ± 0.028
ACCCGACGAG | 1.03 ± 0.039
GGCTAAAGCG | 0.974 ± 0.012
ATCGTATTAC | 1.46 ± 0.041
TAAAAATTCA | 1.009 ± 0.0021
GGGGGAGGCC | 1.02 ± 0.056
AGATTTTCGC | 1 ± 0.0091
TTGTAGTTG | 0.9952 ± 0.0062
AAAGTGTGCC | 0.962 ± 0.013
TTGTTAATTG | 1.01 ± 0.041
TAAGTTTGTG | 0.996 ± 0.05
GTGGCGCTTT | 0.976 ± 0.023
GATCGAGAGG | 0.98 ± 0.025
CTTGCCTCAG | 1.021 ± 0.0076
GGGGTCACTA | 0.9559 ± 0.009
AGTGGGAACA | 1.01 ± 0.017
TAACGCCCTA | 1.07 ± 0.019
AGACGCGTAG | 0.999 ± 0.046

Sequence | switch fluorescence ratio
CGCTGATGGG | 1.01 ± 0.071
AAATGCTTAT | 1.04 ± 0.022
AGTAACAGTA | 1 ± 0.037
TCATGTTGCT | 1.01 ± 0.025
GGTTTCCCT | 0.973 ± 0.019
CAGTTGGGTT | 1.02 ± 0.041
AGGTTCGGAT | 0.985 ± 0.056
AGTATGGAGC | 0.9983 ± 0.004
ACGGGGTTGG | 1.03 ± 0.024
GGTTTTATAT | 1.006 ± 0.0068
AGGCGTAAGG | 1.03 ± 0.015
AGAGCGGGGT | 0.998 ± 0.0091
CAGGGGGGGA | 1.01 ± 0.044
CCGTGCAGTT | 2.12 ± 0.82
TGGGGTTGAA | 0.958 ± 0.022
CGCCCGGTAA | 1.13 ± 0.043
GCACCTGGAT | 1.01 ± 0.027
AGTAGGGTTG | 0.957 ± 0.011
GATGTGCCAG | 0.969 ± 0.017
TGGCGCACGG | 0.953 ± 0.017
CGGAGGGGGG | 1.03 ± 0.062
TTAAAAGGCT | 0.9974 ± 0.0012
ATGTAGGCAG | 0.961 ± 0.029
TTTTTGAGAG | 0.998 ± 0.032
TTTACCGTCT | 1.04 ± 0.018
GCAGGATGGG | 0.98 ± 0.019

Sequence | switch fluorescence ratio
TTGGTTCAAG | 1.013 ± 0.0027
CCTTCACCTT | 1.077 ± 0.0017
TTCCTACAAG | 1.06 ± 0.014
CGGCAGGTTT | 0.992 ± 0.016
GACGTCCCAG | 0.966 ± 0.061
GGTTTCAATA | 1.0088 ± 0.00023
AGTTTGCGGC | 0.94 ± 0.039
CGTAGTCTGG | 1.05 ± 0.038
TTGATAAAAG | 1.03 ± 0.08
TTTCGGATAA | 1.02 ± 0.056
TTTTGACGAG | 1.016 ± 0.0033
AGAGTGGCAA | 1.04 ± 0.016
AGGGGATCAT | 0.981 ± 0.029
AGGTTCACCC | 1.07 ± 0.08
TGGTCTCTAA | 0.98 ± 0.01
AATTAATGGT | 0.978 ± 0.011
GGCAGGAAAG | 1 ± 0.011
TGCGATGACT | 1.45 ± 0.65
TCGGGTTGAG | 1.01 ± 0.067
GGGAGTCGGG | 1.01 ± 0.0092
TTAAAATCTG | 1.02 ± 0.027
AGTAATTTTA | 1.04 ± 0.04
GATTTTAGTA | 1.01 ± 0.033
CGTAGGGGTA | 1.11 ± 0.32
TGACTATTAA | 0.9845 ± 0.0022
GCCGGGTTGC | 1.01 ± 0.013

Sequence | switch fluorescence ratio
GGGGATGCAG | 0.985 ± 0.049
ACTGTTTTCT | 1.05 ± 0.02
CTTGAAAACT | 1.04 ± 0.044
GACGGGGACC | 1.06 ± 0.063
TAAAAAGACC | 0.976 ± 0.035
ATGGACTGAA | 0.992 ± 0.013
GTGGATCAAA | 1.02 ± 0.049
GGGGTACGCA | 1.02 ± 0.015
TTGGGAGTTA | 0.99379 ± 0.00026
CTACTTGATA | 0.978 ± 0.017
CGTGTTGGAT | 0.997 ± 0.062
TTGATTGAGG | 1 ± 0.017
GCGATGTGGT | 1.01 ± 0.012
ACCAACCGT | 1.16 ± 0.02
ACTTATTAAA | 1.03 ± 0.034
TTCCGGGTTT | 1.2 ± 0.31
ATTGACGTAT | 1.07 ± 0.13
ATGGGTTACG | 1 ± 0.033
GGGACGGATT | 1 ± 0.021
GTGAGCTCAT | 1.01 ± 0.04
AAGGATCTGC | 0.967 ± 0.052
TTGAAATAGG | 1.03 ± 0.011
CATTAAGGGT | 0.992 ± 0.029
